For one protein, expression_or_secretion and localisation_or_trafficking results are on record in PMC4841080.

Holding throughout (conditions): glycan lost; control: wild type
Series [1] in a line: Western blot of cell lysates. In general terms: In western blotting, separated proteins are transferred to a membrane and probed.
Series [2] in a line: Western blot of Ni-NTA-concentrated conditioned medium.
The nature of series [3]: Immunofluorescence co-staining with Golgi marker GRASP65.

B1: R-spondin1 (RSPO1): N137Q (protein)
parent chain: MRLGLCVVALVLSWTHLTISSRGIKGKRQRRISAEGSQACAKGCELCSEVNGCLKCSPKLFILLERNDIRQVGVCLPSCPPGYFDARNPDMNKCIKCKIEHCEACFSHNFCTKCKEGLYLHKGRCYPACPEGSSAANGTMECSSPAQCEMSEWSPWGPCSKKQQLCGFRRGSEERTRRVLHAPVGDHAACSDTKETRRCTVRRVPCPEGQKRRKGGQGRRENANRNLARKESKEAGAGSRRRKGQQQQQQQGTVGPLTSAGPA
For the protein B1, the expression_or_secretion entry in series [1] and in series [2] was “increases” in each case. Further, the localisation_or_trafficking entry in series [3] is “no change”.
